The series in a line: soluble on expression in E. coli; label from the status in PepcDB or PDB records.
For “MQRSLQIFCIMSAIAMAYSQGSRDDNQSAKRNDFSRDIMSFGKRSGNTADLYDRRIMAFGKRQPSYDRDIMSFGKRSAPSDFSRDIMSFGKRSSSMYDRDIMSFGKRSPVDYDRPIMAFGKRAEDYERQIMAFGRRK”, the “soluble on expression in E. coli” value is recorded as “not soluble”.
In the case of “MTKMSITVNQTVLHQLVKNVDGDSIKMESVLRDELLSITPEVEQMMLQLHQSYQNKAKAFGVFQEKSIFAQHLNRLLEQEIEFLGFSQYSTKLLADELGKYNFAESGTLILCQYNFLATDYLFIALLDSRHSMLVDEHLDIRRTEYLDITQFDIAARINLTDLQVNANSNRYLTFIKGRVGRKISDFFMDFLGAEEGLNPQVQNQCLLQAVSDYCDQGELNKEQTQAVKKQVFEYCKGQLSNGNNIELRELSDSLPTLNEQPFVVFTEKQNYGLEESIPPIRSTLKSLTKFSGSGKGVTLSFDAELLNTRIQWDPMTDTLTIKGLPPNLKDQLQKALKSEN”, the “soluble on expression in E. coli” value is “not soluble”.
The entry for “CLAEGTRIFDPVTGTTHRIEDVVYGRKPIHVVAAAKDGTLHARPVVSWFDQGTRDVIGLRIAGGAIVWATPDHKVLTEYGWRAAGELRKGDRVAVRDVETGELRYSVIREVLPTRRARTFDLEVEELHTLVAEGVVVHN” is “soluble”; for “MPHFNFDYQEFLMMVQHLKRRPLSRYLKDFKHSQTHCAHCRKLLDRITLVRDGKIVNKIEISRLDTLLDEKGWQTEQQSWAALCRFCGDLHCKTQSDFFDIIGFKKFLFEQTEMSPGTVREYVVRLRRLGNHLHEQNISLDQLQDGFLDEILAPWLPTTSTNNYRIALRKYQHYQRQTCTGLVQKSSSLPASDIY” it is “not soluble”.
For the sequence “MSDDALSRIAAALERMSPPPMPAPDFSAVDAFAWHTSPDRLEPVPRVARVDLSLLVGVNRARDILLDNTEHFARGLPANNALLWGSRGMGKSSLVKAIHAAVVAKGLPLKIVELSREDLPSVQRLLKHLRGAPFRFILFCDDLSFSHDDQHYKSLKAVLDGGIEGRPENVILYATSNRRHLMPRDMIENERSTAISPSEAVEEKVSLSDRFGLWLGFHPCSQDEYLEMIRGYCAAHGLSVAEEELRAEAIEWQATRGARSGRVAWQFFTDLAARHGVALLEHHHHHH”, the “soluble on expression in E. coli” value was “not soluble”.
As to “MNLIEKTREFAATFHEGEPSSHDMSHINRVEALCMEIQKEEGGDLLILSLAALLHDVGVIKEHEEGGDHALYSSEIAIEFLSRAGVEMKTIEAVAYCIQTHRFSGGKRPETVEARILQDADRLDALGAIGIFRSILSMGALRMLKHTTGLDKGSSKKTVYIEDPVEGFNEYMRYKPFTIPERLNTVTAKRIAGERLKIMHIYLEALNLEAGNGKHKPLEHHHHHH”, the “soluble on expression in E. coli” value is reported as “soluble”.
For “MKDSSRAELMRKVQETSFACVDMNLYLDNHPDDKNAINTYNSLCNQFAQARYAYENKYGPLTNFGYAPSRCPWQWADQPWPWDREFNYLEHHHHHH”, the “soluble on expression in E. coli” value is “soluble”.
Consider “MMISLYSAATGMSAQQFKLDTIANNLANVDTTGYKKVRAEFQDLLYQYVKNAGTPTAATSSLPTGLYVGHGVRTAATTRIFTLGNFEQTGNALDLAIAGDGFFQIQLQDGRIAYTRDGSFKMDSEGRIVTSNGLLLVPEITIPENAVSINVSPDGIVSAELQDGTIQELGTITLVRFVNPSGLKSIGDNLYIATPASGDPIEGVPGQDGFGAIKQGFLEKSNVDVVREMVDMITAQRAYEFNSRVIQTADEMLRTATNVKR”, for which the “soluble on expression in E. coli” value is listed as “soluble”.
As to “MIEIKNVNKVFYQGSKEILALKDINLHIAKGTIFGVIGSSGAGKSTLIRCVNMLEAPSSGSIIVDGVDLTTLSKKQLVETRRNIGMIFQHFNLLSSRTVFDNVALPLELAGKDKSQITTKVTELLKLVGLADKHESYPSNLSGGQKQRVAIARALASDPSVLLCDEATSALDPATTQSILELLKEINRKLNITILLITHEMEVVKSICHEVAIIGGGELVEKGTVGDIFAHPKTELAHEFIRSTLDLSIPEDYQARLQPNRVEGSYPLVRMEFTGATVDAPLMSQISRKYNIDVSILSSDLDYAGGVKFGMMVAELFGNEQDDSAAIEYLREHNVKVEVLGYVL”, the “soluble on expression in E. coli” value is on record as “not soluble”.
For “EDMKGKIRVYCRLRPLCEKEIIAKERNAIRSVDEFTVEHLWKDDKAKQHMYDRVFDGNATQDDVFEDTKYLVQSAVDGYNVCIFAYGQTGSGKTFTIYGADSNPGLTPRAMSELFRIMKKDSNKFSFSLKAYMVELYQDTLVDLLLPKQAKRLKLDIKKDSKGMVSVENVTVVSISTYEELKTIIQRGSEQRHTTGTLMNEQSSRSHLIVSVIIESTNLQTQAIARGKLSFVDLAGSERVKKSGSAGNQLKEAQSINKSLSALGDVISALSSGNQHIPYRNHKLTMLMSDSLGGNAKTLMFVNISPAESNLDETHNSLTYASRVRSIVNDPSKNVSSKEVARLKKLVSYWKEQAGRKGDDEELEEIQDE” the value was “soluble”; for “ASMTGGQQMGRGSGSEFMENETHYAEAVIDNGAFGTRTIRFETGRLARQAAGSAVAYLDDDTMVLSATTASKNPKDQLDFFPLTVDVEERMYAAGKIPGSFFRREGRPSEDAILTCRLIDRPLRPSFKKGLRNEIQVVATIMALNPDHLYDVVAINAASASTQLAGLPFSGPIGGVRVALIRGQWVAFPTHTELEDAVFDMVVAGRVLEDGDVAIMMVEAEATEKTIQLVKDGAEAPTEEVVAAGLDAAKPFIKVLCKAQADLAAKAAKPTGEFPVFLDYQDDVLEALSAAVRPELSAALTIAGKQDREAELDRVKALAAEKLLPEFEGREKEISAAYRALTKSLVRERVIAEKKRIDGRGVTDIRTLAAEVEAIPRVHGSALFERGETQILGVTTLNMLRMEQQLDTLSPVTRKRYMHNYNFPPYSVGETGRVGSPKRREIGHGALAERAIVPVLPTREEFPYAIRQVSEALGSNGSTSMGSVCASTMSLLNAGVPLKAPVAGIAMGLISQEINGETHYVALTDILGAEDAFGDMDFKVAGTKEFVTALQLDTKLDGIPASVLAAALKQARDARLHILDVMMEAIDTPDEMSPNAPRIITVKIPVDKIGEVIGPKRQMINQIQEDTGAEITIEDDGTIYIGAADGPAAEAARATINGIANPTSPEVGERILGSVVKTTTFGAFVSLLPGKDGLLHISQIRKLAGGKRVENVEDVLGVGQKVQVEIAEIDSRGKLSLIPVIEGEEAASDEKKDDAEQ”, “soluble”; for “MSLSDPNTSGSGVVGESSGVRVAIEGCGHGCLHSIYASVERAAALKGWDGVDLLIIGGDFQAVRNSNDMACMSVPNKYKEIGDFHEYYSGQRTAPYLTIFVGGNHEASNHLFELYYGGWVAPNIYYMGAANVLRFGPLRIAGLSGIWKGRDYRKPHFERLPYNDDDIKSIYHVRELDVRKLLQVRTQIDVGLSHDWPRQIEYCGDWQQLFRAKPLFRRDSQNGTLGSTAAEYVLNRLRPAYWFSAHLHVKFAASVQHGPQEVVPNRQYGLDGASLTSMLSETEEASRQTGYSQAEAEPNAHAVSETGTTEEGHHHHHH”, “soluble”.
Regarding “MPVITILGCRMFEDEIMHLLENDPEIEEVLVVENEDCVGIMKKMAEAGLAYTALSPEKIPEKSSETGKGLTLIVYMLELALHAIPENLKKTVYSKVELMSSCSDGILLFYGLCGNVLGKIEEDFKDLGCQVCILKEENGEIVDDCIGAVLGGRKQYLEVLKSCRGVGTFFLTPMWAVNWREMIRTSGLSQNPDDISMSKFVFDYAGYKRVARLDTGLAYEKDFDACVKEFSTLFEFEVTELEGTLHLIENCYAKTKASVFEACPRSQALEHHHHHH”, the “soluble on expression in E. coli” value is on record as “soluble”.
With “MSLSEFEKYYPKISNLSTKLLDNPELGFKEYQTSKLIEDEIKSISPSIKVEHYLGTGLKVIFDNHKPKTIGIIAEMDDLYQPKHFKANPETGAAHACGHYTQVGIALAMINEIVKAERLKEFGTNLAFIFTPAEEFVDLDWRQEQKAKHKLDYFGGKQEAIKQGLFDHINYCVSVHAIGEEFKQRTVEINCDLAGFNFKYFDFYGEASHAAFAPESGVNAQSIATLFTTALALQRQQIKNPNRIRFNPVVIGENTESINVIPDHVKMGSDLSFFDIKYVQSLMKKFDQAAQGCASALGGKAKITTQVGYLPLHSNREMNALVKDTFLQEDRIPGLIENRGYTMAAGDIGDVGFIMPTIQIGYGGWTGTIHGSDFKLIDPEFVLKIFPEFVFNSTLNISNHLEKIDEYHHTKREYLKALKKMEGEGHHHHHH”, the “soluble on expression in E. coli” value is “not soluble”.
“MANVQSGKMIVGLDIGTSKVVALVGEVAADGSLEIVGIGTHPSRGLKKGVVVNIESTVQSIQRAIEEAQLMAGCRIHSAFVGVAGSHIRSLNSHGIVAIRDREVSAADLERVLDAAQAVAIPADQ”: the “soluble on expression in E. coli” value was “not soluble”.
Regarding “MVAISEIKSTVDVTAANCLMLLSRVGQENVDGGDQKRVFTCKTCLKQFHSFQALGGHRASHKKPNNDALSSGLMKKVKTSSHPCPICGVEFPMGQALGGHMRRHRNESGAAGGALVTRALLPEPTVTTLKKSSSGKRVACLDLSLGMVDNLNLKLELGRTVY”, the “soluble on expression in E. coli” value is reported as “not soluble”.
Turning to “PSTVPIMHQVSATMRSITLSWPQPEQPNGIILDYEIRYYEKEHNEFNSSMARSQTNTARIDGLRPGMVYVVQVRARTVAGYGKFSGKMCFQTLTD”, the “soluble on expression in E. coli” value is listed as “soluble”.
Regarding “IDKKLTTLADLFRPPIDLMHKGSFETAKECGQMQNKWLMINIQNVQDFACQCLNRDVWSNEAVKNIIREHFIFWQVYHDSEEGQRYIQFYKLGDFPYVSILDPRTGQKLVEWHQLDVSSFLDQVTGFLGEHGQLDGLSSS”, the “soluble on expression in E. coli” value is on record as “soluble”.
The entry for “MEKSYMKHELWGDGDFQEDDVWDVLDGYQSPFMISSNHTTKPSFSTQTLLPSEPRMIPERQRTEGMAPMRQQSVPVNVPDWSMVQRKKTKKVVDDENVSPEEYFLRRSRSSSSSSVMEGVGRKLKGRDLSKVRNAILKQTGFLE” is “soluble”; for “MKSAEQWIDELQLESHPEGGFYRETIREVLKDGRRAPFSSIYFLLTDDNISHFHRIDADEVWYYHAGDSLTIHMINPDGEYTTATLGTDIQNGDVLQYVVPKGTIFASSIEFSNTYSLVGCMCQPAFEFKQFELFKQSELITQYPHLKSVIEKYALK” it is “soluble”; for “MSLNILILHRVRYVDVLYHQSIDHELHNVYYIGIEENLNEIPADLRCTKIVRPGVDAVHKEVLEQIENLDVCFDHVVSINEFELIEAALIREKLNIAGPKVADVEKVRNKIVMKHCVGAVNIRIPQYMSLSDFMNSERLAIPPSSQVILKPLDGASSVDVVKFDSQKVLEQALIDRTTGIVALDKETPERIENFEVEEFVSGPVLHIDGMIRNGQIEMIVVSQYINTLLDFANGYPAGSVQLETTEEMKTWALQILNAVDISLGAFHLEAIQTDTGPVFLEIAHRIGGARIAETLTLQTGIHPSILELGLLLDPDFKFELNYDTGYKYAWFIVPGHQLPGNYGLVSGHEFLYGKEEVVMLNQLTMQQPLVKAVTYKESEIPLAGLLKAKSAKELTDLIDRLFGQLQLISVDTPLPYSECMPQKKKHVLVIGNIRQPHKTLEAQGYAISWMYKKVPNFTHTTEDHNRCERILMYSNESAIQLISLARSIDQLQKIDSVVSFHDGAQLDALTIANALELPFSLSMGAIVNTRDKQLSRRILREKNLTEVQSAIAENEQDLHDFFKIYPQVNKVIVKPVAGTGSENVRSLESKELETANLDNVYPVLVEQFVEGREFSVEAFMQEGKCHIFAITEKFKDAQSFIETGHLVPARLSSDEHEKIAAFIAKVLPALGVVSGITHSEIMLGEKIELIETHTRVGGDRIFDLVQMTTGIDMYRLQALQSLGLPIGEDELTPKLNGKHACIKFKLNDHPGKKVIRVNGEEEIKNWSGVEDVSITHQAGEVLPQIVNSFDRSASVLVLCDSSEQALSIAEEAIQKLEFVVGEGHHHHHH” it is “soluble”.
Consider “MTISELLQYCMAKPGAEQSVHNDWKATQIKVEDVLFAMVKEVENRPAVSLKTSPELAELLRQQHSDVRPSRHLNKAHWSTVYLDGSLPDSQIYYLVDASYQQAVNLLPEEKRKLLVQL”, for which the “soluble on expression in E. coli” value is “not soluble”.

The record behind these values is the DeepSol protein solubility set.
